The target in the experiment is T1, Spc98p (Saccharomyces cerevisiae, UniProt P53540 1-846).
T1 sequence: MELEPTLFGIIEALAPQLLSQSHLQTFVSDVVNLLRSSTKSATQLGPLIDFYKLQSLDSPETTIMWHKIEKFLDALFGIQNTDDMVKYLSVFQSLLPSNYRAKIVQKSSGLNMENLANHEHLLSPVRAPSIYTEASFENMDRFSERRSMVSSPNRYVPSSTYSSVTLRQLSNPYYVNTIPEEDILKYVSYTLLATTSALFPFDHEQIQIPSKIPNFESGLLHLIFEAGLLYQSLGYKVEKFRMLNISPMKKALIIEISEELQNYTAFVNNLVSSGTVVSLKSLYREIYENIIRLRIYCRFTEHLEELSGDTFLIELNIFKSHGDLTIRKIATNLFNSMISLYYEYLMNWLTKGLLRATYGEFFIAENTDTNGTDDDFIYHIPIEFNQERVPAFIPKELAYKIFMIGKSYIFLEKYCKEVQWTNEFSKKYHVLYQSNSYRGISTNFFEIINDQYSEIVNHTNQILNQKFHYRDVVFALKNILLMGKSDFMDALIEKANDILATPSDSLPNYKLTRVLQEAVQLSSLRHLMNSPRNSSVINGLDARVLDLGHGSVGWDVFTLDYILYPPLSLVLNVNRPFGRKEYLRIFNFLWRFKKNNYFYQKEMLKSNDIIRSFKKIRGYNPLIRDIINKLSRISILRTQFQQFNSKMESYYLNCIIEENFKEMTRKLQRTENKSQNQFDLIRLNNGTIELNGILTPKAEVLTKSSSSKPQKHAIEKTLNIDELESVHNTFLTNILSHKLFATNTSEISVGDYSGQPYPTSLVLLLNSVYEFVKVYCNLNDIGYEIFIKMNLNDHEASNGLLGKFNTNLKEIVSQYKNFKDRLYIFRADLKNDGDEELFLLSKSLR
The experiment can be described thus: cryo-EM structure.

We go through one molecule from publication PMC2921000 (Nature, 2010).

B1: Spc97p (natural protein)
chain: MEIKEVDDRAELLRYTNNIPLLGKLVNHQPLWSTNPKLKSFSLEKISAPDQRRVQEALVVKDLLNVLIGLEGTYIRYFNDYEPSDPETPIEFKIAKKMDPSFKTFSRRIVRYGKQYMILTRAYEKWSDTSFGMVLQRFAYEIRRFLEDVYLKTLVERLERDFNKVPNFSIRELEQIINETEVNKQMELLYNIYEEIFREIEERRTNQSSQEDFNNFMDSMKNESSLHLRLMVAFDTTVYPVPKGGAILKIFQQKILENLGDRSSVMFLKKLLNNISQDYCTMLYEWLTQGILNDPYQEFMTYDDLEGKTDNIFDTRDRAWDTQYFIRKDVLLRDCDSEEDKNLLFKMLRTGILLKVVRASLQIPTIPSNSSDITIQEINDFADLMEGSNLELYVDKCYSRANEIFLKLFFQGYDLINVLKHLQQIFLGYQSGHNVLKFLTKNMGELTKHYRNDNNANYDKLLQNFELERQSENPNNLMRQLLMIQFDTETLPQVLSHYLQIYPEVPENNSANDDSDPLMHANNFKNMNAILFDELSKERTGAYHGSNLELYTPKSAIYHLKFDINIPYPLNIIISRTCMIKYQIILRYQLVLQYHSRLLDETWMDLNKTPSWKYRGYSHTVKRRIVRATRVLHAKMNHFIKTIMEYFNQNVIDKEVYSLEKCYRNPTLAVAIQNELEGGLTNIMTNRCLSDLIPLQLQIFDIVYKFCKFIKSMRAKLCQLDPVLYEKHKSGMMKTLNEGYRTNNGGQEDVGYQEDAALELIQKLIEYISNASSIFRKCLINFTQELSTEKFDFYDSSSVDAAGIERVLYSIVPPRSASASSQR
As to B1, the binding result is “binds”.
